From article PMC7486931

What was measured:
[1] = target: T1, VtlR (rVtlR) (Agrobacterium tumefaciens C58) (UniProt A9CI74); assay: EMSA
T1 sequence: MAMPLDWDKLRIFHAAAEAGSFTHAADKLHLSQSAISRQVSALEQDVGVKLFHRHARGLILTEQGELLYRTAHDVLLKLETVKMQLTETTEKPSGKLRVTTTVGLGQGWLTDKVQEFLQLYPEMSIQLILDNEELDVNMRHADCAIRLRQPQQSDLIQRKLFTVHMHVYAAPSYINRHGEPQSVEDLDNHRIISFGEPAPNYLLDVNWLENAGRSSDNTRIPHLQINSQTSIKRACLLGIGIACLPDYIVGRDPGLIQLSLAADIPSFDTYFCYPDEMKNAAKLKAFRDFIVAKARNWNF

[2] = target: T1, VtlR (rVtlR) (Agrobacterium tumefaciens C58); assay: competition

GAACTGGGAGGAAAAGCCACCGTGTGCATCAACTGAGAGCTATTTGGTGTTTTTTTGTGCACGAAACAACTCTTTTTTGTGCAGGTCAGGCATGCGTCGCACGCAGCCCTCGATATTTCCGGTATATTTTATGTGCAAAGCTGAAGAAGGGCGCCTGCGCGCCCCTCTTGCTTCTACCTTTACAAGGCTTTGAATTTTAAAGATTATCTTTCGACGTCGATTATTTTTACGTCAGAAGTTCCAGTTCCGC (double strand) [PabcR1]
binding [1]: binds

GCCGTGGGCAAGCGTGACAGCTAACTAAAATATGGGAGTGGCAAGAATGCAAAACAAGGTTGCATCATGCGATATTTCGCCAATTTGGAGAAAATTCTTGCGGGTAAAAAAAGAGGGCCGCCG (double strand) [PabcR2]
binding [2]: no binding
